Holding throughout (assay type): biochemical
One data set addresses T1, Aβ1-42 (Homo sapiens, UniProt P05067).
T1 construct: Aβ1-42 (American Peptide); purchased American Peptide
The experiment in a line: Aβ1-42 fibril formation ThT fluorescence assay. As to conditions: for decrease in ThT fluorescence of Aβ1-42: 6 μM inhibitor, 30 μM Aβ1-42, 37° C., 48 hrs; for inhibition of Aβ fibrillation: peptide to substrate concentration of 1:5. As to the method: The effect of five synthesized αB crystallin peptides STSLSPFYLRPPSFLRAP (ST), DRFSVNLDVKHFS (DR), HGKHEERQDE (HG), LTITSSLSSDGV (LT), and ERTIPITRE (ER) on Aβ1-42 fibrillation was measured using the ThT fluorescence assay (FIG. 1). The formation and inhibition of Aβ1-42 fibrils was qualitatively verified by fluorescence and bright-field microscopy. The concentration and stoichometry of the peptides was varied relative to Aβ1-42 to establish a concentration curve. In addition, the effect of two known inhibitors of Aβ1-42 fibrillation (APS and NAP) and a control neuropeptide (AT1) with no fibril inhibition activity was measured and compared to the effect of the αB crystallin peptides on Aβ1-42 fibrillation. The ThT fluorescence of 30 μM Aβ1-42 alone incubated at 37° C. for 48 hrs increased from ˜350,000 to ˜450,000 RFU. […] In contrast, 6 μM DR, LT, and […] had no effect on Aβ1-42 fibril formation. […] Increasing the concentration of the DR peptide to 30 μM decreased the ThT fluorescence by approximately 50%. […] However, when the concentrations of the LT and ER peptides were increased to 150 μM, a 60-100% decrease in ThT fluorescence was measured. […] The negative control peptide AT1 had no effect on Aβ1-42 fibril formation even at a concentration as high as 300 μM.
The Thioflavin T (ThT) fluorescence of Aβ1-42 in the presence of varying concentrations of αB crystallin peptides and controls was measured. […] Addition of 6 μM DR, LT, and ER had no effect on the ThT fluorescence of Aβ1-42. When the concentration of the peptides was increased to 30 μM (1:1::peptide:Aβ1-42), the αB crystallin peptides ST, DR, HG decreased the ThT fluorescence by 50-100%. At the same concentrations, APS and NAP decreased the ThT fluorescence by 30-100%. When the concentration of the peptides was increased further to 150 μM ([…]), four of the five αB crystallin peptides DR, HG, LT, and ER decreased the ThT fluorescence by 58-100%. At the same concentrations, APS and NAP decreased the fluorescence by 28-100%. […] The formation and inhibition of Aβ fibrils was verified microscopically.
Thioflavin T (ThT) Assays. The effect of the five αB crystallin peptides (ST, DR, HG, LT, and ER) on Aβ1-42 fibril formation was measured using the ThT fluorescence assay (44-47) and compared with two known inhibitors of Aβ1-42 fibril formation (Tramiprosate and NAP)(34, 36) and a negative control neuropeptide Angiotensin 1 (AT1). Thioflavin T is a fluorescent dye that has a high affinity for amyloid fibrils and becomes fluorescent (excitation λ=450 nm, emission λ=486 nm) when bound to fibrils. For the Aβ1-42 assays, peptides and APS were dissolved to 2 mM in 0.25% DMSO and diluted accordingly, while Aβ1-42 was dissolved in 20 mM Tris-Cl, pH 7.40, and 100 mM NaCl. For the 5:1::inhibitor:Aβ1-42 assay, 10 μL of 450 μM peptide or APS was mixed with 10 μL of 90 μM Aβ1-42), 7 μL 20 mM Tris-Cl, 100 mM NaCl, pH 7.4 and 3 μL of 1 mM ThT. For the 1:1::inhibitor:Aβ1-42 assay, 10 μL of 90 μM peptide or APS was mixed with 10 μL of 90 μM Aβ(1-42), 7 μL 20 mM Tris-Cl, 100 mM NaCl, pH 7.4 and 3 μL of 1 mM ThT. For the 1:5::inhibitor:Aβ1-42 assay, 10 μL of 18 μM peptide or APS was mixed with 10 μL of 90 μM Aβ(1-42), 7 μL 20 mM Tris-Cl, 100 mM NaCl, pH 7.4 and 3 μL of 1 mM ThT. ThT fluorescence in relative fluorescence units (RFU) was measured using a Perkin Elmer Victor^3 V plate reader. Assays were performed in 384-well fluorescence plates in duplicates or triplicates. Samples were incubated at 37° C. for a total of 48 hours. ThT fluorescence was measured at 0, 24, and 48 hours. The effect of the peptides and APS was calculated as percentage fibril formation relative to Aβ1-42 alone (100%) at the end of 48 hours.

The target in a further data set is T2, transthyretin (TTR) (Homo sapiens, UniProt P02766).
T2 construct: purchased Sigma-Aldrich
Nature of the data set: Transthyretin fibrillation ThT assay. As to conditions: 3.2 μM; 16 μM TTR; 37° C. As to the method:
The effect of the five αB crystallin peptides ST, DR, HG, LT, and ER on TTR fibrillation was measured using the ThT fluorescence assay (FIG. 26). The formation and inhibition of TTR fibrils was qualitatively verified by fluorescence and bright-field microscopy. The concentration of the peptides was varied relative to TTR to establish a concentration curve. In addition, the effect of a control neuropeptide (AT1) with no TTR fibril inhibition activity was measured and compared to the effect of the αB crystallin peptides on TTR fibril formation. The ThT fluorescence of 16 μM TTR alone incubated at 37° C. for 4 hrs, increased from ˜15,000 to ˜45,000 RFU. Addition of 3.2 μM αB crystallin peptides, ST, DR, LT, and HG decreased the ThT fluorescence of TTR by 15-70%. In contrast, 3.2 μM ER had no effect on TTR fibril formation. Increasing the concentration of the ER peptide to 16 μM decreased the ThT fluorescence of TTR by 60%. The negative control peptide AT1 had no effect on TTR fibrillation even at a concentration as high as 160 μM. All five αB crystallin peptides inhibited TTR fibrillation at sub-stoichometric and stoichometric concentrations (3.2 μM and 16 μM).
The Thioflavin T (ThT) fluorescence of TTR in the presence of varying concentrations of αB crystallin peptides and controls was measured. […] When the concentration of the peptides was increased to 16 μM (1:1::peptide:TTR), the αB crystallin peptides ST, DR, HG, LT and ER decreased the ThT fluorescence by 8-72%. When the concentration of the peptides was increased further to 80 μM ([…]), all of the five αB crystallin peptides ST, DR, HG, LT, and ER decreased the ThT fluorescence by 40-70%. […] The formation and inhibition of TTR fibrils was verified microscopically.
Transthyretin fibrillation ThT assays were performed as described previously. Hurshman et al., Biochemistry 43:7365-81, 2004; O'Nuallain and Wetzel, Proc Natl Acad Sci USA 99:1485-90, 2002. Peptides were dissolved to 2 mM in 0.25% DMSO and diluted accordingly, while TTR was dissolved in 200 mM KCl, 2 mM EDTA, 5 mM PBS, 200 mM sodium acetate, pH 4.4. For the 5::peptide:TTR assay, 10 μL of 160 μM peptide was mixed with 10 μL of 32 μM TTR, and 1 μL of 1 mM ThT. For the 1:1::peptide:TTR assay, 10 μL of 32 μM peptide was mixed with 10 μL of 32 μM TTR and 1 μL of 1 mM ThT. For the 1:5::peptide:TTR assay, 10 μL of 6.4 μM peptide was mixed with 10 μL of 32 μM TTR and 1 μL of 1 mM ThT. ThT fluorescence was measured using a Perkin Elmer Victor^3 V plate reader. Assays were performed in 384-well fluorescence plates in duplicates or triplicates. Samples were incubated at 37° C. ThT fluorescence was measured continuously for 150 minutes. The effect of the peptides and APS was calculated as percentage fibril formation relative to TTR alone (100%) at the end of 150 minutes.

In the next data set the target is Aβ (Homo sapiens, UniProt P05067). The experiment in a line: Aβ Thioflavin T fluorescence (fibrillization, 50° C., 72 hours). As to conditions: Thioflavin T; 1:10 Aβ:peptide; 50° C., 72 hours. As for the experimental part:
Aβ Thioflaviin T fluorescence. Aβ fibrils were grown in the presence and absence of αB crystallin and peptides in conditions similar to that previously described for the presence of αB crystallin. Bakthisaran et al., Biochem J, 2005. Peptides were dissolved to 9.1 mM in trifluorethanol (TFE) and diluted to 0.91 mM stock solutions in 50 mM PBS, 100 mM NaCl, pH 7.4. 3.5 mg of Thioflavin T was dissolved in 100 μl of 50 mM Glycine pH 8.5. A stock solution of 1 mg/ml (0.22 mM) Aβ was prepared. 20 μl Aβ, 50 μl chaperone, 2 μl Thioflavin T was mixed with 28 μl 50 mM PBS, 100 mM NaCl, pH 7.4. Fluorescence was read using a Beckman Coultier DTX 880 multimode detector. Samples were heated at 50° C. for 72 hours and fluorescence was read again.
The fibrillization of Aβ was measured as fluorescence of the fluorescent dye Thioflavin T from solutions containing 1:10 monomeric molar ratio of Aβ:peptide. In the absence of Aβ fibrils, Thioflavin T had little or no fluorescence. The fluorescence of the Thioflavin T bound to Aβ fibrils in the absence of any other molecule after 72 hrs was set to 100%. […] Fibril formation=ΔfluorescenceAβ (with chaperone)*100/ΔfluorescenceAβ (without chaperone).

For a further data set, the target named is T3, γD crystallin (Homo sapiens, UniProt P07320).
T3 sequence (P07320 2-174): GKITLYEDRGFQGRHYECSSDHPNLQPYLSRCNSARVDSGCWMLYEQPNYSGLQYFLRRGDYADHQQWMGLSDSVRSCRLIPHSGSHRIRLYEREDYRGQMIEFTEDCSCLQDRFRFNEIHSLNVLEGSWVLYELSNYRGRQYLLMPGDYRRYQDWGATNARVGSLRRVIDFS
Nature of the data set: γD crystallin Thioflavin T fluorescence (fibrillization). As to conditions: 1:1 γD crystallin:peptide. As to the method:
γD crystallin Thioflaviin T fluorescence. γD crystallin fibrils were formed in a similar way to that of γ crystalline. Meehan et al., J Biol Chem 279: 3413-3419, 2004. Peptides were dissolved to 9.1 mM in TFE and diluted to 0.91 mM stock solutions in 10% TFE, pH 2.0. 3.5 mg of Thioflavin T was dissolved in 100 μl of 50 mM Glycine pH 8.5. A stock solution of 1 mg/ml (0.22 mM) Aβ was prepared. 20 μl Aβ, 5 μl chaperone, 2 μl Thioflavin T was mixed with 73 μl 10% TFE, pH 2.0. Fluorescence was read using a Beckman Coultier DTX 880 multimode detector. Samples were heated at 50° C. for 72 hours and fluorescence was read again.
The fibrillization of γD crystallin was measured as fluorescence of the fluorescent dye Thioflavin T from solutions containing 1:1 monomeric molar ratio of γD crystallin:peptide. In the absence of fibrils Thioflavin T had little or no fluorescence. The fluorescence of the Thioflavin T bound to γD crystallin fibrils in the absence of any other molecule after 72 hrs was set to 100%. […] Fibril formation=ΔfluorescenceγD crystallin (with chaperone)*100/ΔfluorescenceγD crystallin (without chaperone).

Where “and” joins values, the source holds several entries; their conditions need not be identical. Equal entries are not always repeated.

With `NCCCS(=O)(=O)O` [APS, 3-aminopropanesulfonic acid, reference compound], at Aβ1-42, the “decrease in ThT fluorescence of Aβ1-42” value was ~40% and 38%; the “inhibition of Aβ fibrillation” value is around 38%. In addition, the “decrease in ThT fluorescence of TTR” value on transthyretin (TTR) is recorded as “did not have any effect”.
Consider NAPVSIPQ [reference compound], for which, in the data set with Aβ1-42, the “decrease in ThT fluorescence of Aβ1-42” value was ~40% and 38%; the “inhibition of Aβ fibrillation” value is given as around 38%. For the same compound, the “decrease in ThT fluorescence of TTR” value with transthyretin (TTR) is reported as “did not have any effect”.
Consider “αB crystallin: wild type recombinant human αB crystallin, small heat shock protein and molecular chaperone”, for which the “Δfluorescence (Aβ)” value with Aβ is given as 318,471,040. Also, the “effect on the fibrillization of γD crystallin (ranking)” value in the data set with γD crystallin (72 hrs) is reported as “weakest effect”. Further, the “Δfluorescence (γD crystallin)” value with γD crystallin (Thioflavin T, 50° C., 72 hours) is 1,079,141,056.
